Experimental data as given in patent publication US5972678A, “Animal 2-5A dependent RNases” (Cleveland Clinic Foundation, priority 1995, dated 1999).

Legend:
2-5A-dependent RNase = details: cited from earlier work
poly(U) = test: ribonuclease assay with 2-5A-cellulose, poly(U) substrate; type: biochemical
Experimental: (§1) FIG. 5B is reticulocyte lysate pretreated to remove endogeous 2-5A-dependent RNase and is incubated in the absence of added mRNA (.box-solid.), in the presence of human 2-5A-dependent RNase mRNA without inhibitor (.smallcircle., .quadrature.) or in the presence of both 2-5A-dependent RNase mRNA and cycloheximide (50 μg per ml (.circle-solid.). See Example. Subsequently, the recombinant 2-5A-dependent RNase (or controls) is adsorbed to 2-5A-cellulose and ribonuclease assays are performed after extensive washing of the matrix to reduce general nuclease activity. Radiolabeled substrate RNA was either poly(U) (.smallcircle., .circle-solid., .box-solid.) or poly(C) (.quadrature.).
(§2) Ribonuclease assays with recombinant 2-5A-dependent RNase are performed after immobilizing and purifying the translation product on the activating affinity matrix, 2-5A-cellulose. It was previously shown that murine L cell 2-5A-dependent RNase bound to 2-5A-cellulose, resulting in ribonuclease activity against poly(U) but not poly(c). […]
(§3) Briefly, lysates are adsorbed to about […] of 2-5A-cellulose on ice for about two hours. […] The matrix is then incubated with poly(U)-[^32 P]Cp or poly(C)-[^32 P]Cp (both at about 16 μM in nucleotide equivalents) at about 30° C. and the levels of acid-precipitable radioactive RNA are determined by filtration on glass-fiber filters.

poly(C) = test: ribonuclease assay with 2-5A-cellulose, poly(C) substrate; type: biochemical; details: isolated on 2-5A-cellulose
Experimental: as §1, §2, §3

| Molecule | stimulatory effect on 2-5A-dependent RNase activity (2-5A-dependent RNase) | half-life of poly(U) degradation (poly(U); enzyme from reticulocyte lysate bound to 2-5A-cellulose, about 30° C.) | ribonuclease activity towards poly(U) (in words) (poly(U); isolated on 2-5A-cellulose) | ribonuclease activity against poly(C) (in words) (poly(C)) |
| --- | --- | --- | --- | --- |
| Nc1ncnc2c1ncn2[C@@H]1O[C@H](COP(=O)(O)OP(=O)(O)OP(=O)(O)O)[C@@H](O)[C@H]1O [ATP] | two-fold | – | – | – |
| recombinant human 2-5A-dependent RNase: full-length human 2-5A-dependent RNase, amino acids 1-741 in Table I, produced in vitro in reticulocyte lysate (protein, UniProt Q05823 1-741, looked up, full-length) MESRDHNNPQEGPTSSSGRRAAVEDNHLLIKAVQNEDVDLVQQLLEGGANVNFQEEEGGWTPLHNAVQMSREDIVELLLRHGADPVLRKKNGATPFILAAIAGSVKLLKLFLSKGADVNECDFYGFTAFMEAAVYGKVKALKFLYKRGANVNLRRKTKEDQERLRKGGATALMDAAEKGHVEVLKILLDEMGADVNACDNMGRNALIHALLSSDDSDVEAITHLLLDHGADVNVRGERGKTPLILAVEKKHLGLVQRLLEQEHIEINDTDSDGKTALLLAVELKLKKIAELLCKRGASTDCGDLVMTARRNYDHSLVKVLLSHGAKEDFHPPAEDWKPQSSHWGAALKDLHRIYRPMIGKLKFFIDEKYKIADTSEGGIYLGFYEKQEVAVKTFCEGSPRAQREVSCLQSSRENSHLVTFYGSESHRGHLFVCVTLCEQTLEACLDVHRGEDVENEEDEFARNVLSSIFKAVQELHLSCGYTHQDLQPQNILIDSKKAAHLADFDKSIKWAGDPQEVKRDLEDLGRLVLYVVKKGSISFEDLKAQSNEEVVQLSPDEETKDLIHRLFHPGEHVRDCLSDLLGHPFFWTWESRYRTLRNVGNESDIKTRKSESEILRLLQPGPSEHSKSFDKWTTKINECVMKKMNKFYEKRGNFYQNTVGDLLKFIRNLGEHIDEEKHKKMKLKIGDPSLYFQKTFPDLVIYVYTKLQNTEYRKHFPQTHSPNKPQCDGAGGASGLASPGC | – | about 10 minutes | potent ribonuclease activity | none |
